# Measured values taken from paper PMC5686111.
# Target: protein A-derived Z-domain of the mAbSelect SuRe resin
# Test: protein A (Z-domain) affinity chromatography, pH-gradient elution
substance,measurement,value
"human IgG1 T307P, L309Q (antibody)",elution pH from the protein A (Z-domain) column,4.48 pH
